{
  "source": "paper PMC9142589",
  "about": "“Automated vitrification of cryo-EM samples with controllable sample thickness using suction and real-time optical inspection” (Nature Communications, 2022)",
  "target": "the molecule itself",
  "test": "cryo-EM structure; single particle analysis; apoferritin at 2.5 µM in 150 mM NaCl, 25 mM Tris pH 7.5, 2 mM DTT; 91,000 particles; X-ray model PDB 6RJH fitted into the map",
  "data": [
    {"protein": "Horse spleen apoferritin (natural protein, horse spleen apoferritin; the X-ray model of horse spleen apoferritin (PDB 6RJH) was fitted into the map; source: bought: Sigma (9013-31-4), purified by gel filtration (Superdex 200 Increase 3.2/300) immediately before vitrification) SQIRQNYSTEVEAAVNRLVNLYLRASYTYLSLGFYFDRDDVALEGVCHFFRELAEEKREGAERLLKMQNQRGGRALFQDLQKPSQDEWGTTLDAMKAAIVLEKSLNQALLDLHALGSAQADPHLCDFLESHFLDEEVKLIKKMGDHLTNIQRLVGSQAGLGEYLFERLTLK", "values": [
      {"measurement": "binding result", "result": "binds"}
    ]}
  ]
}
